B1: S009-F2.16.10 (antibody, human IgG1, kappa, V domains shown)
VH: QVQLQQPGAELIKPGASVKLSCKASGYTFTSYWMHWVKQRPGQGLEWIGIIHPNIGSTNYNERFKSKATLTVDKSSSTAYMQLSSLTSEDSAVYYCARRSSNYGDWYFDVWGTGTTVTVSS
VL: DIVMTQSHRFMSTSVGDRVSITCKASQDVGTSVAWYQQKPGQSPKLLIYWASTQHTGVPDRFTGSGSGTDFTLTINNVQSEDLLDYFCQQYSSYPLTFGAGTKLELKR
notes: Human-murine chimeric antibody, human IgG1/kappa constant regions
B2: S009-F2.13.3 (antibody, human IgG1, kappa, V domains shown)
VH: QVQLQQSGAELMKPGASVKLSCKATGYTFTGYWIEWVKQRPGHGLEWIGEILPGSGSTNYNEKFKGKATFTADTSSNTAYMQLSSLTTEDSAIYYCARAGAWFAYWGQGTLVTVSA
VL: QIVLTQSPAIMSASLGERVTMTCTASSSVSSSYLHWYQQKPGSSPKLWTYSTSNLASGVPARFSGSGSGTSYSLTISSMEAEDAATYYCHQYHRSPWTFGGGTKLEIKR
notes: as for B1
B3: S009-F2.17.3 (antibody, human IgG1, kappa, V domains shown)
VH: QVQLQQPGTELVTPGASVKLSCKASGYSFTSYWMHWVKQRPGQGLEWIGNINPSNGDTFYNEKFKNKATLTVDKSSSTAYMQLSSLTSEDSAVYYCARGWLRDYWGQGTTLTVSS
VL: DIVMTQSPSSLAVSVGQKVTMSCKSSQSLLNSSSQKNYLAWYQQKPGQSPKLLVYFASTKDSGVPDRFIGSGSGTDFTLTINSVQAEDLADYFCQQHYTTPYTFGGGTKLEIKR
notes: as for B1
B4: S009-F2-56.12 (antibody, human IgG1, kappa, V domains shown)
VH: DVQLQESGPGMVKPSQSLSLTCTVTGYSITSGYDWHWIRHFPGNKLEWMGYISYSGSTNYNPSLKSRISITHDTSKNHFFLKLKSVTTEDTATYYCARGTGPDYWGQGTTLTVSS
VL: DIVMTQSQKFMSTSVGDRVSITCKASQNVRTAVAWYQQKPGQSPKALIHLPSNRHTGVPDRFTGSGSGTDFTLTISNVQSEDLADYFCLQHWNYPLTFGGGTKLEIKR
notes: as for B1
B5: S009-F2.38.12 (antibody, human IgG1, kappa, V domains shown)
VH: QVQLQQPGTELVKPGASVKLSCKASGYTFTSYWMHWVKQRPGQGLEWIGNINPSNGGTNYNEKIKNKATLTVDKSSSTAYMQLSSLTSEDSAVYYCARWNYYGNYPFDYWGQGTTLTVSS
VL: DIVMTQSQKFMSTTVGDRVSITCKASQNVGTAVAWYQQKPGQSPKLLIYSASNRYTGVPDRFTGSGSGTDFTLTISNMQSEDLADYFCQQYSSYPLTFGAGTKLELKR
notes: human-murine chimeric antibody, human IgG1/kappa constant regions
B6: S009-F1.59.1 (antibody, human IgG1, kappa, V domains shown)
VH: EVKLEGSGGGLVQPGGSMMLSCVATGFTFSSYWMNWVRQSPDRGLEWVAEIRLKSNGFAAFYAESVKGRFTISRDDSKSSVYLQMNNLRTEDTGIYYCTYFVHWGQGILVTVSE
VL: DIVLTQSPTSLAVSLGQRATISCRTSESVEYFGTILIQWYQQKPGQPPKLLIFGASNVESGVPARFSGSGSGTDFSLNIHPVEEEDIAMYFCQQNRKVPYTFGGGTTLELKR
notes: as for B5
B7: S009-F1.25.10 (antibody, human IgG1, kappa, V domains shown)
VH: EVQLQQSGPELVKPGASLKISCKASGYSFTDYTMNWVKQSHGKNLEWIGLFNPYNGGISYNQKFKGKATLTVDKSSNTAYMELLSLTSDDSAVYFCARDGRGGFYAMDYWGQGTSVTVSS
VL: DIQMTQTTSSLSASLGDRVTISCRASQDISIYLNWYQQKPDGPVKLLIYYTSRLHSGVPSRFSGSGSGTDFSLTISNLEQEDIATYFCQQGYTLPPWTFGGGTKLEIKR
notes: as for B5
B8: S009-F1.7.14 (antibody, human IgG1, kappa)
heavy: not shown
light: QIVLTQSPAIMSASPGEKVTISCSASSSVSYMYWYQQKPGSSPKPWISRTSNLASGVPARFSGSGSGTSYSLTISSMEAEDAATYYCQQYHSYPPTLGAGTKLELKRTVAAPSVFIFPPSDEQLKSGTASVVCLLNNFYPREAKVQWKVDNALQSGNSQESVTEQDSKDSTYSLSSTLTLSKADYEKHKVYACEVTHQGLSSPVTKSFNRGEC
notes: as for B5
B9: S009-F2.21.4 (antibody, human IgG1, kappa, V domains shown)
VH: EVQLQQSGPELVKPGASVKIPCKASGYTFTDYNMDWVKQSHGKSLEWIGDINPNNGGSIYNQRFKGKATLTVDKSSSTAYMELRSLTSEDSAVYYCARRAYYSTGYFDVWGTGTTVTVSS
VL: QIVLTQSPALMSASPGEKVTITCSASSSISYMHWFQQKPGTSPKLWIYSTSTLASGVPARFSGSGSGTSYSLTISRMEAEDTATYYCQQRSSYPPTFGGGTKLEIKR
notes: as for B5
B10: S009-F1.62.9 (antibody, human IgG1, kappa, V domains shown)
VH: EVQLQQSGADLVKPGASVKLSCTVFGLNFKDTFMHWVRQRPEQGLEWIGRIDPANDNSIYGPKFQDKATITADTSSNTAYLHLSSLTSEDTAVYYCLYFDNWGHGTTLTVSS
VL: DIVMTQAASSEPVTPGESVSISCRSDKSLLHSNGHNYLYWFLQRPGQSPHLLIYRMSNLASGVPDRFSGSGSGTAFTLRISRVEAEDVGVYYCMQHLEYPLTFGAGTKLELKR
notes: as for B5

Molecular target: T1, human MSLN-R1-his protein (human, UniProt Q13421 296-390)
T1 construct: Region 1 of human MSLN, His-tagged; also called human MSLN-R1 protein; hMSLN-R1-his; not shown: His tag
T1 chain: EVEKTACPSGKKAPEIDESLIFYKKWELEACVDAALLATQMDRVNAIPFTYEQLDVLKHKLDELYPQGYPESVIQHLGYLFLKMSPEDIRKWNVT
Assay: ELISA, coated MSLN-R1;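 also: serially diluted chimeric antibodies bound to the coated, BSA-blocked plate for 2 h at 37 °C, with TMB colour read after acid stop and a negative control antibody alongside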

Point of comparison: B3, “OD450 at 0.0001 nM” value 0.05 OD450. Against it:
- B1 — the same, 0.05 OD450
- B2 — the same, 0.05 OD450

Point of comparison: B1, “OD450 at 0.001 nM” value 0.06 OD450. Against it:
- B2 — lower, 0.05 OD450
- B3 — lower, 0.05 OD450

Point of comparison: B1, “OD450 at 0.01 nM” value 0.09 OD450. Against it:
- B2 — lower, 0.05 OD450
- B3 — lower, 0.04 OD450

Point of comparison: B2, “OD450 at 0.1 nM” value 0.05 OD450. Against it:
- B1 — higher, 0.44 OD450
- B3 — the same, 0.05 OD450

Point of comparison: B3, “OD450 at 1 nM” value 0.04 OD450. Against it:
- B1 — higher, 0.94 OD450
- B2 — higher, 0.05 OD450

Point of comparison: B3, “OD450 at 10 nM” value 0.06 OD450. Against it:
- B1 — higher, 1.62 OD450
- B2 — lower, 0.05 OD450

Point of comparison: B2, “OD450 at 100 nM” value 0.06 OD450. Against it:
- B1 — higher, 2.03 OD450
- B3 — higher, 0.07 OD450

Point of comparison: B1, “OD450 at none (no antibody)” value 0.06 OD450. Against it:
- B2 — the same, 0.06 OD450
- B3 — the same, 0.06 OD450

molecular target: T2, human MSLN-FL-his protein (human, UniProt Q13421 296-580); assay: ELISA, coated MSLN full-length;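 also: binding of chimeric antibodies to plate-bound antigen, read by TMB colour after acid stop, antibody incubated 2 h at 37 °C, negative control antibody run alongside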
T2 construct: also called human MSLN full-length protein; hMSLN-FL-his; not shown: His tag

Point of comparison: B4, “OD450 at 0.0001 nM” value 0.06 OD450. Against it:
- B1 — lower, 0.05 OD450
- B2 — the same, 0.06 OD450
- B3 — lower, 0.05 OD450

Point of comparison: B2, “OD450 at 0.001 nM” value 0.08 OD450. Against it:
- B1 — higher, 0.09 OD450
- B4 — lower, 0.07 OD450
- B3 — lower, 0.06 OD450

Point of comparison: B2, “OD450 at 0.01 nM” value 0.26 OD450. Against it:
- B1 — higher, 0.41 OD450
- B4 — lower, 0.16 OD450
- B3 — lower, 0.13 OD450

Point of comparison: B4, “OD450 at 0.1 nM” value 0.37 OD450. Against it:
- B1 — higher, 1.71 OD450
- B2 — higher, 1.3 OD450
- B3 — higher, 0.64 OD450

Point of comparison: B4, “OD450 at 1 nM” value 0.41 OD450. Against it:
- B1 — higher, 2.22 OD450
- B2 — higher, 2.08 OD450
- B3 — higher, 1.93 OD450

Point of comparison: B1, “OD450 at 10 nM” value 2.4 OD450. Against it:
- B4 — lower, 0.37 OD450
- B2 — lower, 2.37 OD450
- B3 — higher, 2.48 OD450

Point of comparison: B1, “OD450 at 100 nM” value 2.92 OD450. Against it:
- B4 — lower, 0.4 OD450
- B2 — lower, 2.77 OD450
- B3 — lower, 2.81 OD450

Point of comparison: B2, “OD450 at none (no antibody)” value 0.06 OD450. Against it:
- B1 — the same, 0.06 OD450
- B4 — higher, 0.07 OD450
- B3 — the same, 0.06 OD450

molecular target: T3, human MSLN-FL-his protein (human, UniProt Q13421 296-580); assay: SPR (Biacore), antibody captured on Protein A chip;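 also: measured at 25 °C, analyte injected 240 s in five twofold dilutions from 200 nM, dissociation up to 600 s, double-referenced, fitted with Langmuir 1:1 model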
T3 construct: made in HEK293E cells, purified on nickel column; also called hMSLN-FL-his; human MSLN full-length protein; not shown: His tag
T3 sequence (Q13421 other isoform, or with tags, fused parts or gaps): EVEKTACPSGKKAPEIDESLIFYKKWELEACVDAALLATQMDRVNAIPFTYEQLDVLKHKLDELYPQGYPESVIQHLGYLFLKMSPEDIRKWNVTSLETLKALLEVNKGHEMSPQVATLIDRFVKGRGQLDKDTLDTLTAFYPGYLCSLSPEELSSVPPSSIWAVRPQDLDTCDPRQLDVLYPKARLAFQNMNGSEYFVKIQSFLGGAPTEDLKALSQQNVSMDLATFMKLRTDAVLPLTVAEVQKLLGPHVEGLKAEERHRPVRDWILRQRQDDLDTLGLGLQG

Point of comparison: B6, Kd 563 nM. Against it:
- B5 — 18-fold lower, 30.8 nM
- B7 — 3-fold lower, 186 nM
- B8 — 44-fold lower, 12.8 nM
- B9 — 19-fold lower, 29.1 nM
- B10 — within 1.5-fold, 745 nM

Point of comparison: B8, koff 0.00709 s⁻¹. Against it:
- B5 — 1.5-fold higher, 0.0109 s⁻¹
- B6 — 7.7-fold lower, 0.000922 s⁻¹
- B7 — 11-fold lower, 0.00067 s⁻¹
- B9 — 3.2-fold higher, 0.0227 s⁻¹
- B10 — 20-fold lower, 0.000348 s⁻¹

Point of comparison: B10, kon 467 M⁻¹ s⁻¹. Against it:
- B5 — 760-fold higher, 354000 M⁻¹ s⁻¹
- B6 — 3.5-fold higher, 1640 M⁻¹ s⁻¹
- B7 — 7.7-fold higher, 3600 M⁻¹ s⁻¹
- B8 — 1200-fold higher, 553000 M⁻¹ s⁻¹
- B9 — 1700-fold higher, 780000 M⁻¹ s⁻¹

From patent US20250250357A1 (NANJING ZAIMING PHARMACEUTICAL, published 2025)
